IntAct's records for PubMed 16890161

B1: Low-density lipoprotein receptor-related protein 6 (Homo sapiens), O75581 (parent)
chain: MGAVLRSLLACSFCVLLRAAPLLLYANRRDLRLVDATNGKENATIVVGGLEDAAAVDFVFSHGLIYWSDVSEEAIKRTEFNKTESVQNVVVSGLLSPDGLACDWLGEKLYWTDSETNRIEVSNLDGSLRKVLFWQELDQPRAIALDPSSGFMYWTDWGEVPKIERAGMDGSSRFIIINSEIYWPNGLTLDYEEQKLYWADAKLNFIHKSNLDGTNRQAVVKGSLPHPFALTLFEDILYWTDWSTHSILACNKYTGEGLREIHSDIFSPMDIHAFSQQRQPNATNPCGIDNGGCSHLCLMSPVKPFYQCACPTGVKLLENGKTCKDGATELLLLARRTDLRRISLDTPDFTDIVLQLEDIRHAIAIDYDPVEGYIYWTDDEVRAIRRSFIDGSGSQFVVTAQIAHPDGIAVDWVARNLYWTDTGTDRIEVTRLNGTMRKILISEDLEEPRAIVLDPMVGYMYWTDWGEIPKIERAALDGSDRVVLVNTSLGWPNGLALDYDEGKIYWGDAKTDKIEVMNTDGTGRRVLVEDKIPHIFGFTLLGDYVYWTDWQRRSIERVHKRSAEREVIIDQLPDLMGLKATNVHRVIGSNPCAEENGGCSHLCLYRPQGLRCACPIGFELISDMKTCIVPEAFLLFSRRADIRRISLETNNNNVAIPLTGVKEASALDFDVTDNRIYWTDISLKTISRAFMNGSALEHVVEFGLDYPEGMAVDWLGKNLYWADTGTNRIEVSKLDGQHRQVLVWKDLDSPRALALDPAEGFMYWTEWGGKPKIDRAAMDGSERTTLVPNVGRANGLTIDYAKRRLYWTDLDTNLIESSNMLGLNREVIADDLPHPFGLTQYQDYIYWTDWSRRSIERANKTSGQNRTIIQGHLDYVMDILVFHSSRQSGWNECASSNGHCSHLCLAVPVGGFVCGCPAHYSLNADNRTCSAPTTFLLFSQKSAINRMVIDEQQSPDIILPIHSLRNVRAIDYDPLDKQLYWIDSRQNMIRKAQEDGSQGFTVVVSSVPSQNLEIQPYDLSIDIYSRYIYWTCEATNVINVTRLDGRSVGVVLKGEQDRPRAVVVNPEKGYMYFTNLQERSPKIERAALDGTEREVLFFSGLSKPIALALDSRLGKLFWADSDLRRIESSDLSGANRIVLEDSNILQPVGLTVFENWLYWIDKQQQMIEKIDMTGREGRTKVQARIAQLSDIHAVKELNLQEYRQHPCAQDNGGCSHICLVKGDGTTRCSCPMHLVLLQDELSCGEPPTCSPQQFTCFTGEIDCIPVAWRCDGFTECEDHSDELNCPVCSESQFQCASGQCIDGALRCNGDANCQDKSDEKNCEVLCLIDQFRCANGQCIGKHKKCDHNVDCSDKSDELDCYPTEEPAPQATNTVGSVIGVIVTIFVSGTVYFICQRMLCPRMKGDGETMTNDYVVHGPASVPLGYVPHPSSLSGSLPGMSRGKSMISSLSIMGGSSGPPYDRAHVTGASSSSSSSTKGTYFPAILNPPPSPATERSHYTMEFGYSSNSPSTHRSYSYRPYSYRHFAPPTTPCSTDVCDSDYAPSRRMTSVATAKGYTSDLNYDSEPVPPPPTPRSQYLSAEENYESCPPSPYTERSYSHHLYPPPPSPCTDSS

Variants of: B1
Conditions: with axin1_rat Axin1, O70239
Chain of axin1_rat Axin1, O70239 (O70239 whole entry): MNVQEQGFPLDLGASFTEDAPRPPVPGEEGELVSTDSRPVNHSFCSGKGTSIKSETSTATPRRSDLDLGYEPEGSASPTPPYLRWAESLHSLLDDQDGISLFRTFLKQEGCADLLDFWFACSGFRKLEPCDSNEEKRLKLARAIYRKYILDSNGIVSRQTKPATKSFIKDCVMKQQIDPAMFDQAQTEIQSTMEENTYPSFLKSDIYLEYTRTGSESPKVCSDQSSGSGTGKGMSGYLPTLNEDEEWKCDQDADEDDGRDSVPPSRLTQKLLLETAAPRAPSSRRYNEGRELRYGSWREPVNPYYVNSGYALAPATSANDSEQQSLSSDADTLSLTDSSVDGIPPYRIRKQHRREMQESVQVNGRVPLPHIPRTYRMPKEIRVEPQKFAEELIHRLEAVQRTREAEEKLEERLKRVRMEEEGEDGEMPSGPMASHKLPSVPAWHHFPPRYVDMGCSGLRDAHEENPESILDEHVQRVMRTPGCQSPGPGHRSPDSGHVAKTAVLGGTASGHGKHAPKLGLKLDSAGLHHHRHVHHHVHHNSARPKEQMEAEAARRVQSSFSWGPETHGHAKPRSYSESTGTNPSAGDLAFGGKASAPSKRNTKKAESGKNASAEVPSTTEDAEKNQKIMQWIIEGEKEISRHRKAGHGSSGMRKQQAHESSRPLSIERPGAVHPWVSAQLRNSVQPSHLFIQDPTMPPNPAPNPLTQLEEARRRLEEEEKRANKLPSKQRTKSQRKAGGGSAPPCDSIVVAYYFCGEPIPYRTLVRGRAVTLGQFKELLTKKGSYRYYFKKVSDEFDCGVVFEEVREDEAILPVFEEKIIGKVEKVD

effect of a mutation on the interaction | Variant
decreasing interaction | S1490A
